Key:
Assay in all cases: fluorescence polarisation
[1] = biological target: pSer(2,5) RNAPII CTD di-heptad repeat peptide
[2] = biological target: pSer5 RNAPII CTD di-heptad repeat peptide
[3] = biological target: pSer2 RNAPII CTD di-heptad repeat peptide
[4] = biological target: unphosphorylated form of the RNAPII-CTD (peptide)
[5] = biological target: pTyr1 RNAPII CTD di-heptad repeat peptide

| Kd [1] | Kd [2] | Kd [3] | Kd [4] | fold decrease of binding against WT Spt6(1247–1451) [2] | fold decrease of binding against WT Spt6(1247–1451) [5] | fold decrease of binding against WT Spt6(1247–1451) [3] | Binder |
| --- | --- | --- | --- | --- | --- | --- | --- |
| 23 µM | 245 µM | 197 µM | > 1000 µM | – | – | – | Spt6(1247–1451) (domain or fragment) AKRTHRVINHPYYFPFNGRQAEDYLRSKERGEFVIRQSSRGDDHLVITWKLDKDLFQHIDIQELEKENPLALGKVLIVDNQKYNDLDQIIVEYLQNKVRLLNEMTSSEKFKSGTKKDVVKFIEDYSRVNPNKSVYYFSLNHDNPGWFYLMFKINANSKLYTWNVKLTNTGYFLVNYNYPSVIQLCNGFKTLLKSNSSKNRMNNYR |
| – | – | – | – | 1.4 fold | 2.4 fold | 1.2 fold | R1282A/S1284A Spt6(1247–1451) (domain or fragment) AKRTHRVINHPYYFPFNGRQAEDYLRSKERGEFVIAQASRGDDHLVITWKLDKDLFQHIDIQELEKENPLALGKVLIVDNQKYNDLDQIIVEYLQNKVRLLNEMTSSEKFKSGTKKDVVKFIEDYSRVNPNKSVYYFSLNHDNPGWFYLMFKINANSKLYTWNVKLTNTGYFLVNYNYPSVIQLCNGFKTLLKSNSSKNRMNNYR |

— paper PMC3086336
